Source: paper PMC9154745

Target: human cannabinoid receptor type 2 (CB2) (human) (UniProt P34972)
UniProt P34972, sequence (P34972 whole entry): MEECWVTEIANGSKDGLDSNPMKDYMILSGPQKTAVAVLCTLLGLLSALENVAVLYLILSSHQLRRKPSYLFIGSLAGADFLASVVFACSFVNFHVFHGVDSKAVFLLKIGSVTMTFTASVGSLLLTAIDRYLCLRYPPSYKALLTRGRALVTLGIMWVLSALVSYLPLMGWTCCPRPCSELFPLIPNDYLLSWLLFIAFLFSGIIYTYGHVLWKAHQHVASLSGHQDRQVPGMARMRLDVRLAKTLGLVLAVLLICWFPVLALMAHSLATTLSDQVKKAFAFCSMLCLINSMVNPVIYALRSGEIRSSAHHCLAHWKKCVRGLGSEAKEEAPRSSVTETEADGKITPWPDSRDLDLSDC

osteogenic growth peptide (OGP), the 5-amino-acid cellular activator derived from OGP(1-14) (from UniProt P62805 99-103)
logEC50 of half-maximal inhibition of FSK-stimulated cAMP in CHO-hCB2 cells (bell-shaped dose-response curve, two independent experiments): -12.1
